Columns and labels:
ASC-CARD in pGilda = target: T1, ASC-CARD in pGilda (human, UniProt Q9ULZ3 107-195); assay: yeast two-hybrid, β-Gal read-out
T1 construct: domain: CARD; Yeast two-hybrid construct; also called CARD domain of ASC
T1 sequence (looked up): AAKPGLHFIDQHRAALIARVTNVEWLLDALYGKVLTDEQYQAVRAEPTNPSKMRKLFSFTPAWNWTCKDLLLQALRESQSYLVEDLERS
Description: (§1) Colonies were plated on both LEU+ and LEU− media and also used for a β-Gal-assay.

ASC in pGilda = target: T2, ASC in pGilda (human, UniProt Q9ULZ3 1-195); assay: yeast two-hybrid, Leu read-out
T2 construct: Yeast two-hybrid construct
Description: as §1

B1: endogenous IKKα (protein)
chain: MERPPGLRPGAGGPWEMRERLGTGGFGNVCLYQHRELDLKIAIKSCRLELSTKNRERWCHEIQIMKKLNHANVVKACDVPEELNILIHDVPLLAMEYCSGGDLRKLLNKPENCCGLKESQILSLLSDIGSGIRYLHENKIIHRDLKPENIVLQDVGGKIIHKIIDLGYAKDVDQGSLCTSFVGTLQYLAPELFENKPYTATVDYWSFGTMVFECIAGYRPFLHHLQPFTWHEKIKKKDPKCIFACEEMSGEVRFSSHLPQPNSLCSLVVEPMENWLQLMLNWDPQQRGGPVDLTLKQPRCFVLMDHILNLKIVHILNMTSAKIISFLLPPDESLHSLQSRIERETGINTGSQELLSETGISLDPRKPASQCVLDGVRGCDSYMVYLFDKSKTVYEGPFASRSLSDCVNYIVQDSKIQLPIIQLRKVWAEAVHYVSGLKEDYSRLFQGQRAAMLSLLRYNANLTKMKNTLISASQQLKAKLEFFHKSIQLDLERYSEQMTYGISSEKMLKAWKEMEEKAIHYAEVGVIGYLEDQIMSLHAEIMELQKSPYGRRQGDLMESLEQRAIDLYKQLKHRPSDHSYSDSTEMVKIIVHTVQSQDRVLKELFGHLSKLLGCKQKIIDLLPKVEVALSNIKEADNTVMFMQGKRQKEIWHLLKIACTQSSARSLVGSSLEGAVTPQTSAWLPPTSAEHDHSLSCVVTPQDGETSAQMIEENLNCLGHLSTIIHEANEEQGNSMMNLDWSWLTE
- TNFα-induced activation of endogenous IKKα (in vitro kinase assay, phosphorylation of GST-IKBα substrate by immunoprecipitated IKKα) (Myc-ASC-PAAD): ASC-PAAD potently suppressed TNFα-induced activation of endogenous IKKα in these cells

B2: ASC-CARD in pJG 4-5 (other, human, UniProt Q9ULZ3 107-195, looked up, not shown: large carriers)
chain: T1 sequence (looked up)
notes: domain: CARD; Yeast two-hybrid construct; also called CARD domain of ASC
- binding result (ASC-CARD in pGilda): binds
- binding result (ASC in pGilda): binds

Reference: US20040002593A1 (BURNHAM INSTITUTE, published 2004)
